Measured values taken from patent US20060234285A1 (Human Genome Sciences, published 2006).

Tests used:
[1] = biological target: T1, FLAG-tagged soluble form of TNF-gamma-beta (aa 72-251) (human, UniProt O95150 72-251); test: coimmunoprecipitation with protein A-Sepharose, anti-Flag western blot
T1 construct: also called FLAG-TL1β; FLAG-TNF-gamma-beta
T1 sequence (looked up): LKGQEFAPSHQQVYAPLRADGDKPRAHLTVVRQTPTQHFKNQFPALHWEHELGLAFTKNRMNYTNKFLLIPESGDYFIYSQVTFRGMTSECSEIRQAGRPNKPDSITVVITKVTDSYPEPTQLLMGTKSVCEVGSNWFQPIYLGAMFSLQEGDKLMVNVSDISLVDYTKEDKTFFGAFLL
Text: The beads were then precipitated and washed extensively with PBST buffer (PBS, 0.5% Triton X-100) before boiled in SDS-sample buffer. Proteins were resolved on 4-20% Tris-Glycine gels (NOVEX), transferred to nitrocellulose membranes, and blotted with anti-Flag M2 monoclonal antibody (1 microgram/ml, Sigma) and horseradish peroxidase (HRP)-conjugated goat anti-mouse IgG antibody (0.5 microgram/ml).

[2] = biological target: T2, Human LIGHT, full length, on cells (stably transfected 293F cells; endogenous on activated human T cells) (human, UniProt O43557 1-240); test: flow cytometry on 293 cells overexpressing LIGHT
T2 construct: whole, on cells; also called LIGHT-transfectants; cell membrane LIGHT
Experimental: This was tested on 293 cells overexpressing LIGHT according to flow cytometry.

[3] = biological target: T3, TNF-gamma-beta, full length, on transfected cells (human, UniProt O95150 1-251); test: flow cytometry on HEK293F cells expressing full length TNF-gamma-beta
T3 construct: whole, on cells; also called TL1β
T3 sequence (looked up): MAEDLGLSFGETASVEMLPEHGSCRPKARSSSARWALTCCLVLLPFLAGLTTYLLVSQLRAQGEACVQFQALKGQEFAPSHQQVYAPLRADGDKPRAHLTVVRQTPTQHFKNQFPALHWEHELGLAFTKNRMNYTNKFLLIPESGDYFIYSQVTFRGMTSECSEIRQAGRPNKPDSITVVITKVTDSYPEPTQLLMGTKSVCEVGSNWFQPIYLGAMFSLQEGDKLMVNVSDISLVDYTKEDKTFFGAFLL
Experimental: One million cells, in 0.1 ml of FACS buffer (PBS, 0.1% BSA, 0.1% NaN₃), were incubated with 0.1-1 microgram of protein or antibody at RT for 15 min. The cells were washed with 3 ml of FACS buffer, reacted with biotinylated primary antibody, and stained with PE-conjugated secondary antibody at RT for 15 min. Cells were then washed again, resuspended in 0.5 microgram/ml of propidium iodide, and live cells were gated and analyzed on a FACScan using the CellQuest software (BD Biosciences).

[4] = biological target: T4, Murine FasL on transfected murine L929 cells (murine, UniProt P41047 1-279); test: cell-based or functional assay
T4 sequence (looked up): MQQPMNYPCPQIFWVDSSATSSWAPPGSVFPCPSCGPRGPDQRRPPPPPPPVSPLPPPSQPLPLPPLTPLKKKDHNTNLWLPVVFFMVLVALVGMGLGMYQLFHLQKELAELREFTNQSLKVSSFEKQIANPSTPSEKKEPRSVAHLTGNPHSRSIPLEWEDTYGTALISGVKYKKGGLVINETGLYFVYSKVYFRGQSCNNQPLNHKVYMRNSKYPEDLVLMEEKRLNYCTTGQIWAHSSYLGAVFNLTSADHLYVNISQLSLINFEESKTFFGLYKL

[5] = biological target: T5, Soluble human FLAG-FasL (synthesized at HGS) (human, UniProt P48023 130-281, limits assumed); test: cell-based or functional assay
T5 sequence (looked up): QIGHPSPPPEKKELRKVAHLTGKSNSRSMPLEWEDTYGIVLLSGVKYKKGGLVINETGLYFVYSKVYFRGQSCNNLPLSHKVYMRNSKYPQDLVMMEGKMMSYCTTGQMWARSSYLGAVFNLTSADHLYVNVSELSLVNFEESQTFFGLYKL

[6] = biological target: T5, Soluble human FLAG-FasL (synthesized at …); test: BIAcore, trimerized FLAG-FasL soluble

T2 sequence (O43557 whole entry): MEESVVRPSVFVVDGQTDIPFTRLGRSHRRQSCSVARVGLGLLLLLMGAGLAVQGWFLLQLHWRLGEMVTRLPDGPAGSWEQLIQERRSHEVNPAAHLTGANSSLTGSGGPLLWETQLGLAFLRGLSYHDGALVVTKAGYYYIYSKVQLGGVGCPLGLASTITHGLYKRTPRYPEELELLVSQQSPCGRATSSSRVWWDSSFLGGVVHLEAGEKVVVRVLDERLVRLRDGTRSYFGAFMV

B1: Human Fas(M1-G169)-Fc fusion protein (Fc fusion, UniProt P25445 26-169, looked up, not shown: a dimerising Fc or GST)
chain: QVTDINSKGLELRKTVTTVETQNLEGLHHDGQFCHKPCPPGERKARDCTVNGDEPDCVPCQEGKEYTDKAHFSSKCRRCRLCDEGHGLEVEINCTRTQNTKCRCKPNFFCNSTVCEHCDPCTKCEHGIIKECTLTSNTKCKEEG
notes: range 1-169; From CHO cells; a disulfide-linked dimer; also called Fas-Fc; FasFc
- binding result [1]: no binding
- binding result [2]: no binding
- binding result [3]: no binding
- IC50 of inhibition of killing of A20 target cells by murine FasL-transfected L929 cells [4]: ~0.1 µg/mL
- cross-linked FLAG-FasL mediated HT-29 cell death; shift of the cytotoxicity curve [5]: ~10 fold
- Kd [6]: 7.4 nM
